The supplement of paper PMC10567573

B1: ANKRD17 (parent)
chain: EMVRFLLEAGADQEHKTDEMHTAL

Variants of: B1
Test: protein stability index of a GFP-peptide fusion (GPS, HEK-293T) (PSI 1-6); higher = more stable
Details: c terminus: a fixed tail appended
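Further: lentivirally expressed fusions sorted by FACS into six bins by GFP to DsRed ratio, PSI derived from sequencing read proportions per bin multiplied by bin number.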

Protein stability index of substitutions, site by site:
F5: R 3.77; N 4.29; Q 4.22; K 4.33; M 2.87; P 4.91; W 2.26; V 3.7; I 2.88; L 2.56; Y 2.25; S 4.56; T 4.38
L7: W 3.26; V 3.64; D 5.07; C 3.56; T 3.99; R 4.13; P 4.99; I 3.31; N 3.72; E 4.79; M 3.4; Q 4.04; S 3.95; A 4.08; G 4.76; Y 3.17; H 4.27; K 3.7; F 3.31
G10: P 3.73; T 2.27; W 2.2; R 1.67; Y 1.72; F 2.18; L 1.95; S 2.03; K 2.57; M 2.05; N 2.82; V 2.07; Q 2.57; D 3.13; I 1.98; C 2.13; A 2.76; E 3.32; H 2.57
K16: G 2.56; A 3.16; P 2.45; T 3.44; R 2.51; W 1.88; H 2.87; Q 2.53; N 3.29; F 3; M 3.06; I 2.72; D 3.54; Y 2.22; S 2.91; L 3.11; C 2.56; E 2.68; V 3.18
D18: T 2.42; P 2.35; H 2.01; I 2.64; V 1.6; N 2.51; A 2.31; K 2.47; S 2.73; C 2.01; Y 1.44; G 2.26; L 1.7; F 1.34; W 2.44; R 2.1; Q 2.67; E 3.16; M 2.1
A9: D 3.09; Q 2.78; P 3.08; N 2.92; S 2.96; F 2.32; K 3.05; W 1.89; T 3.04; V 2.29; H 2.58; G 2.8; R 2.03; M 2.22; I 1.98; E 3.44; Y 2.54; L 2.59; C 2.62
E19: R 2.7; M 2.01; Y 1.6; T 2.53; C 1.54; K 1.91; H 2.22; N 3.27; Q 1.92; A 2.33; G 1.71; W 1.43; I 1.63; P 1.87; D 2.28; L 2.29; F 1.97; S 2.16; V 1.79
Q13: M 2.25; N 2.86; C 3.28; V 2.69; K 2.92; Y 1.87; I 2.36; D 3.77; P 2.67; L 2.03; H 2.46; R 2.22; S 2.94; W 2.27; F 2.11; A 2.65; G 2.78; T 3.83; E 2.79
T22: G 3.23; S 2.98; Q 2.78; E 3.42; C 2.2; V 2.46; P 2.86; R 2.5; F 1.97; K 2.51; N 2.86; M 2.15; I 1.93; D 2.75; H 2.39; L 3.45; A 2.77
M20: I 2.36; H 2.79; K 2.94; P 3.21; D 3.56; R 3.5; S 3.45; E 2.94; Q 3; L 3.13; W 2.82; N 3.59; C 2.48; T 3.15; Y 2.45; G 3.12; V 2.84; F 2.75; A 3.04
A11: K 2.64; Q 2.58; C 2.57; G 3.45; S 3.1; P 3.73; W 2.22; R 3.02; Y 2.01; V 2.94; M 1.87; L 2.04; N 3.29; T 3.53; F 1.83; D 3.21; E 2.68; H 3.22; I 2.29
T17: F 2.15; A 2.45; I 2.16; Q 2.54; M 2.71; C 2.5; L 2.22; S 2.76; Y 2.33; H 2.55; D 3.12; R 2.68; V 2.37; P 3.17; E 2.99; N 2.21; W 2.19; G 2.94; K 3.12
H15: Q 3; T 3.02; G 2.73; M 2.42; R 2.44; S 2.79; K 2.92; L 2.71; D 3.33; E 3.04; F 1.94; I 2.56; N 3.21; P 2.33; V 2.69; Y 1.97; W 1.72; C 3.16; A 2.76
E8: L 2.52; F 1.94; V 1.89; I 2.07; T 2.63; G 2.08; K 2.71; R 2.03; Y 1.78; Q 2.67; M 2.62; P 3.11; D 2.72; C 2.14; H 2.43; N 2.48; S 2.62; W 1.19; A 2.15
D12: H 1.94; S 2.29; L 1.09; F 1.66; P 2.25; C 1.44; E 2.76; Y 1.89; V 2.05; W 1.43; A 2.38; M 2.07; T 2.21; K 2.69; N 2.17; R 2.05; Q 2.66; G 1.96; I 1.62
H21: I 2.55; R 3.36; L 2.66; C 3.21; E 2.89; K 3.11; G 3.1; M 3.25; A 3.24; Q 3.55; D 2.96; P 2.54; V 2.34; W 1.92; Y 2.41; N 3.05; T 2.81; S 3.4; F 2.19
E14: T 2.04; Y 1.44; V 1.82; S 2.15; W 1.67; R 1.95; F 1.9; L 1.79; G 2.63; H 2.01; N 1.95; P 1.9; D 2.61; C 1.5; M 2.72; Q 2.46; I 1.28; K 2.76; A 1.69
L6: I 2.63; F 3.08; S 4.69; H 4.42; V 3.51; E 5.28; C 4.22; M 3.75; P 5.04; Q 4.75; R 4.55; D 5.47; N 4.55; Y 3.81; A 4.45; T 4.62; G 4.95; W 3.25; K 4.7
